From patent US20200148765A1 (OSAKA UNIVERSITY, published 2020)
Numbering of substitutions follows the chain as printed.

T1: mouse CLDN-5 protein (mouse, UniProt O54942 1-218)
T1 construct: Expressed on cells by retrovirus; also called mCLDN-5; MDCKII/mCLDN-5
T1 sequence: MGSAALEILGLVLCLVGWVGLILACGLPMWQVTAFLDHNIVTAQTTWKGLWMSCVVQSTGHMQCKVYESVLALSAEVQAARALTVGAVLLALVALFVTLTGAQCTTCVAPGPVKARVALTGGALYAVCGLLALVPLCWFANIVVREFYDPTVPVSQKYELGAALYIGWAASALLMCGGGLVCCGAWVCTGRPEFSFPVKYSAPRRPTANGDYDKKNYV

T2: wild-type human CLDN-5 protein (human, UniProt O00501 1-218)
T2 construct: Four-transmembrane tight junction protein expressed by retrovirus on HT-1080 (or MDCKII) cells; also called hCLDN-5; human Claudin-5 protein
T2 sequence: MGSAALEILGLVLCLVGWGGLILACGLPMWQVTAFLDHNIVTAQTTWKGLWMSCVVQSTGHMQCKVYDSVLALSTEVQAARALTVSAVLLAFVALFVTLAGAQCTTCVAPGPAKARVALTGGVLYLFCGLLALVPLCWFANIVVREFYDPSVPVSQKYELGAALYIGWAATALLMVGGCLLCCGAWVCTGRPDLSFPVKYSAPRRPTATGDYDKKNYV

T3: mCLDN-1 protein (mouse, UniProt O88551 1-211)
T3 construct: Expressed on cells by retrovirus; also called mouse Claudin-1 protein
T3 sequence: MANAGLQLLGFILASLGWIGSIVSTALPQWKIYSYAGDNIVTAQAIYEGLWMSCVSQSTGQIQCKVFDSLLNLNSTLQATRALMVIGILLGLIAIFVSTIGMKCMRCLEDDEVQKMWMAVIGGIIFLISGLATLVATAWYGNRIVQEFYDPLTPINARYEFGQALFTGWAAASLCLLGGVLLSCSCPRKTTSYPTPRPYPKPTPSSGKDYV

T4: mCLDN-2 protein (mouse, UniProt O88552 1-230)
T4 construct: Expressed on cells by retrovirus; also called mouse Claudin-2 protein
T4 sequence: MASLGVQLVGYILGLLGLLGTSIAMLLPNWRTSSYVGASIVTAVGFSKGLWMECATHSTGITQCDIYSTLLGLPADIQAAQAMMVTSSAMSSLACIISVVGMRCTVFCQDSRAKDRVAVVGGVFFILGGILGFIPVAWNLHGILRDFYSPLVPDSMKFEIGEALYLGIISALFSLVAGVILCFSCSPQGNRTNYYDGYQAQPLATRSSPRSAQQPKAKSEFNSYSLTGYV

T5: mCLDN-3 protein (mouse, UniProt Q9Z0G9 1-219)
T5 construct: Expressed on cells by retrovirus; also called mouse Claudin-3 protein
T5 sequence: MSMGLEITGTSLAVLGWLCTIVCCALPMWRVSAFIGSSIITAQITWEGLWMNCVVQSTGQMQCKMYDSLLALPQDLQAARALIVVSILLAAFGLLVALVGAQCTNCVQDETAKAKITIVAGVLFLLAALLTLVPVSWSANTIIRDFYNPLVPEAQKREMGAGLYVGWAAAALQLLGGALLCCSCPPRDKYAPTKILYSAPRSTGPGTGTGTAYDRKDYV

T6: crab-eating macaque CLDN-5 protein (crab-eating macaque, UniProt O00501 1-218 (human entry))
T6 construct: Expressed on cells by retrovirus; also called cCLDN-5; MDCKII/cCLDN-5
T6 chain: T2 sequence with S86G, F127L, C179G, G190S

B1: mouse anti-CLDN-5 antibody M29 (antibody, mouse IgG3, V domains shown)
VH: EVQLVESGGGLVQPKGSLKLSCAASGFTFNIYAMHWVRQAPGKGLEWVARIRSKSSNYATYYVDSVKDRFIISRDDSQSMLYLQVNNLKTEDTAMYYCVREGNWDCFDYWGQGTTLTVSS
VL: DIVMSQSPSSLPVSVGQKVTMTCKSSQSLLYTSNQKNYLAWYQQKPGQSPKLLIYWASTRESGVPDRFTGSGSGTDFTLTISSVKAEDLAIYYCQQYYRYHTFGGGTRLEIK
notes: Hybridoma monoclonal; also called antibody D
B2: rat anti-CLDN-5 antibody R8 (antibody, rat IgG2b, V domains shown)
VH: VKVVESGGGLVQPGRSMKLSCAASGFTFSDYFMAWVRQSPKKGLEWVASINYGGSRTYYEDSVKGRFTISRDNAKSTLYLQMNSLRSEDTATYYCARHPHRLFDYWGQGVMVTVSS
VL: DIVMTQSPSFLAVSVGETVTINCKSSQSFLSSGNQENYLAWYQQKPGQSPKLLIHLASTRESGVPDRFIGSGSGTDFTLTISSMQAEDVAIYYCQQHYDIPYTFGAGTKLEL
notes: Hybridoma monoclonal; also called antibody H
B3: rat anti-CLDN-5 antibody R11 (antibody, rat IgG2b, V domains shown)
VH: EVQLVESGGGLVQPGRSRKLSCAASGFTFNNYGMAWVRQAPTKGLEWVASITNSGYTTYYRDSVKGRFTISRDNAKNALYLQMDSLRSEDTATYYCTTGGYGGYFPLFDYWGHGVMVTVSS
VL: DVVMTQTPVSLSVSLGGQTSISCRSSQSLFHSDGNTYLYWYLRKPGQSPQLLIYKVSNRFSGVPDRFSGSGSGTDFTLKISRVEPEDLGLYYCYQGTHYPPTFGSGTKLEI
notes: Hybridoma monoclonal; also called antibody J
B4: rat anti-CLDN-5 antibody R20 (antibody, rat IgG2a, V domains shown)
VH: EVQLVESGGGLVQPGRSMKLSCAVSGFTFSDYYMAWVRQAPKKGLEWVASISYEGRNTYYGDSVKGRFTISRDNAKNTLYLQMNSLRSEDTATYYCARHPRRYFDFWGPGTMVTVSS
VL: DIVMTQSPSSLAVSAGETVTINCKSSQSLLFSGDQENHLAWYQQKAGQSAKLLIYWASTRESGVPDRFIGSGSGADFTLTISSMQAEDRATYYCQQNYDIPYTFGAGTKLEL
notes: Hybridoma monoclonal; also called antibody L
B5: rat anti-CLDN-5 antibody R28 (antibody, rat IgG2a, V domains shown)
VH: EVQLVESGGGLVQPGRSLKLSCAASGFTFSDYFMAWVRQAPKKGLEWVASINYEGSRTYYGDSVKDRFTISRDNTKTTLYLQMTSLRSEDTATYYCARHPRRYFDFWGQGVMVTVSS
VL: DIVMTQSPSSLAVSAGETVTINCKSSRSLFSSGYQENYLAWYQQKPGQSPKMLIYLASTRESGVPDRFIGSGSGTDFTLTINTLQAEDLAIYYCQQHYDIPYTFGAGTKLEL
notes: Hybridoma monoclonal; also called antibody M

Each binder was assayed against T1, mouse CLDN-5 protein (assay: FACS, hybridoma supernatant on CLDN-expressing cells).
Description: (§1) By the insertion of a DNA fragment consisting of an hCLDN-1 protein (SEQ ID NO: 30)-encoding sequence, an hCLDN-2 protein (SEQ ID NO: 31)-encoding sequence, an hCLDN-3 protein (SEQ ID NO 32)-encoding sequence, an hCLDN-4 protein (SEQ ID NO: 33)-encoding sequence, an hCLDN-6 protein (SEQ ID NO: 34)-encoding sequence, an hCLDN-7 protein (SEQ ID NO: 35)-encoding sequence, an mCLDN-1 protein (SEQ ID NO: 37)-encoding sequence, an mCLDN-2 protein (SEQ ID NO: 38)-encoding sequence, an mCLDN-3 protein (SEQ ID NO: 39)—encoding sequence, or an mCLDN-5 protein (SEQ ID NO: 29)-encoding sequence, vectors for preparing a retrovirus were obtained. By using these vectors and the vector for preparing a retrovirus prepared in Example 1-2), various CLDN protein-expressing cells were prepared. By using these cells and a culture supernatant of hybridomas producing antibodies as primary antibodies, FACS assay was performed by the following method.
(§2) The obtained CLDN-expressing cells were seeded in a 10 cm dish, and on the next day, the cells were collected. The primary antibodies (100 μL) were added to the obtained 1.0×10⁵ cells and allowed to react for 1 hour at 4° C. At this time, a mixed solution of a C-CPE mutant (C-CPEmt) and a mouse anti-His tag antibody (Abeam) used in Non-Patent Literature 3 was used as positive control. The cells were washed three times with 0.2% BSA-PBS, then mixed with 100 μL of a secondary antibody solution (FITC conjugated goat anti-mouse IgG or anti-rat IgG (Jackson Immune Research, 115-095-003 or 112-095-003) 400x diluted with 1% BSA-PBS, and allowed to react for 1 hour at 4° C. The cells were washed with 0.2% BSA-TBS and then analyzed using FACS caliber (BD Bioscience).
B1: no binding.
B2: no binding.
B3: no binding.
B4: no binding.
B5: no binding.

Each binder was assayed against T2, wild-type human CLDN-5 protein in the same assay as above.
Description: as §1, §2
B1: binds.
B2: binds.
B3: binds.
B4: binds.
B5: binds.

Each binder was assayed against T3, mCLDN-1 protein in the same assay as above.
Description: as §1, §2
B1: no binding.
B2: no binding.
B3: no binding.
B4: no binding.
B5: no binding.

What follows are binders tested against T4, mCLDN-2 protein in the same assay as above.
Description: as §1, §2
B1: no binding.
B2: no binding.
B3: no binding.
B4: no binding.
B5: no binding.

The binders below were run against T5, mCLDN-3 protein in the same assay as above.
Description: as §1, §2
B1: no binding.
B2: no binding.
B3: no binding.
B4: no binding.
B5: no binding.

Target: T6, crab-eating macaque CLDN-5 protein
Assay: FACS on CLDN-5-expressing cells, antibody 5 µg/mL
Method: as §2
In the same manner as in Example 1-2), a DNA fragment consisting of a cCLDN-5 protein (SEQ ID NO: 28)-encoding sequence or an mCLDN-5 protein (SEQ ID NO: 29)-encoding sequence was inserted into a pCX4pur vector, thereby obtaining vectors for preparing a retrovirus. By using these vectors with the vector for preparing a retrovirus prepared in Example 1-2), various animal species CLDN-5 protein-expressing cells were prepared. By using these cells and the antibodies (antibody concentration: 5 μg/mL, as primary antibody), FACS assay was performed in the same manner as in 3-1).
B1: binds.
B2: binds.
B3: binds.
B4: binds.
B5: binds.
